Results reported in patent publication US20170182124A1, “FGF21 Derivatives and Uses Thereof” (Novo Nordisk A/S, priority 2014, published 2017).
Marks after values point to notes of the source that are not given here.

Columns and labels:
[1] = Body weight reduction in lean mice; assay type: in vivo, lean C57BL mice; settings: s.c. 1 mg/kg BID for 7 days, change from baseline day 1 to 7
Procedure: In order to determine the in vivo potency of the FGF21 derivatives the effect on body weight was studied in lean C57BL mice after subcutaneous (s.c.) administration. It has previously been shown that the weight loss induced by FGF21 in lean mice is predictive of the effect in obese mice and therefore lean mice are considered a good screening model.
The compounds were administered s.c. 1 mg/kg either once (QD) or twice (BID) daily in 10 mM phosphate, 2% (w/vol) glycerol, 500ppm (=0.05%) polysorbate 80, pH=8.15, (2 ml/kg) for 7 days (n=7-8). The respective vehicle treated groups (control) were treated with 10 mM phosphate, 2% (w/vol) glycerol, 500ppm (=0.05%) polysorbate 80, pH=8.15, (2 ml/kg) s.c. twice daily for 7 days (n=6-8). Body weight was measured before dosing and again after 7 days treatment.

[2] = molecular target: 3T3-L1 adipocytes (Mus musculus, UniProt P16092+Q99N32); test: Glucose uptake in 3T3-L1 adipocytes; assay type: cell-based; settings: stimulated 20 hours, 3H-deoxy-glucose
How it was run: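 Differentiated 3T3-L1 adipocytes (days 7-9 after troglitazone/IBMX/dexamethasone/insulin induction; express FGFR1c and βKL) stimulated with FGF21 analogues (0-300 nM) for 20 h. 3H-deoxy-glucose uptake over 1 h measured by scintillation counting after Triton lysis; EC50 and Emax derived.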

[3] = pig, in vivo, iv
[4] = mouse, in vivo, iv, 20 mg/kg

Sequence of 3T3-L1 adipocytes (Q99N32 whole entry): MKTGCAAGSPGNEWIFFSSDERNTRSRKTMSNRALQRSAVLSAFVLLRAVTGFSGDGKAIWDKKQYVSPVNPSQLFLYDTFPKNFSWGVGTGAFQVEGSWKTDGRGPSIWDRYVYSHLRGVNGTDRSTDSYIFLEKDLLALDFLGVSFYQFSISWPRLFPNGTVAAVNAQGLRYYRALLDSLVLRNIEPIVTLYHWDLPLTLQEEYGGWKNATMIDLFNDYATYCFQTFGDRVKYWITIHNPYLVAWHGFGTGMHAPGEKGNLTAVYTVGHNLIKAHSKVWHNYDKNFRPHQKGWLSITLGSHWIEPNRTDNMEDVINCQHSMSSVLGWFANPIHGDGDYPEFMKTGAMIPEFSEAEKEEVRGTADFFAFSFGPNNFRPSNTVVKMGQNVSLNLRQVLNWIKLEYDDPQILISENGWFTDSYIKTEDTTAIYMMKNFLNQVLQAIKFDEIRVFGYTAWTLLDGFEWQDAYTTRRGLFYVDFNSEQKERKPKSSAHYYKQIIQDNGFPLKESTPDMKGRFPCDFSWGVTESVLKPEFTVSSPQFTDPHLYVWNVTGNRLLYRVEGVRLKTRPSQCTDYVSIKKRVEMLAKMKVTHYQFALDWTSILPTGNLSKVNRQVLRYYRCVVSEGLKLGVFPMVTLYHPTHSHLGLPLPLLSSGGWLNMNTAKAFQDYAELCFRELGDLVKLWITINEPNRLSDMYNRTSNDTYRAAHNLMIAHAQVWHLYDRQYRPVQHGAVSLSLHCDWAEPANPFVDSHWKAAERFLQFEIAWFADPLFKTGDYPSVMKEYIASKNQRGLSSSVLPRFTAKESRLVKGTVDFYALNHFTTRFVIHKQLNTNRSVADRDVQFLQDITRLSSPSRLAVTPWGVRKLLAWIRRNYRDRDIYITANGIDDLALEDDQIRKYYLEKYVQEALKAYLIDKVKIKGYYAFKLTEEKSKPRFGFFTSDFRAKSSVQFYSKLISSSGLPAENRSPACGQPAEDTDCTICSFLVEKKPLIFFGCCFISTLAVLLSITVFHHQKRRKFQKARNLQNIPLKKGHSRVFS
Sequence of 3T3-L1 adipocytes (P16092 22-822): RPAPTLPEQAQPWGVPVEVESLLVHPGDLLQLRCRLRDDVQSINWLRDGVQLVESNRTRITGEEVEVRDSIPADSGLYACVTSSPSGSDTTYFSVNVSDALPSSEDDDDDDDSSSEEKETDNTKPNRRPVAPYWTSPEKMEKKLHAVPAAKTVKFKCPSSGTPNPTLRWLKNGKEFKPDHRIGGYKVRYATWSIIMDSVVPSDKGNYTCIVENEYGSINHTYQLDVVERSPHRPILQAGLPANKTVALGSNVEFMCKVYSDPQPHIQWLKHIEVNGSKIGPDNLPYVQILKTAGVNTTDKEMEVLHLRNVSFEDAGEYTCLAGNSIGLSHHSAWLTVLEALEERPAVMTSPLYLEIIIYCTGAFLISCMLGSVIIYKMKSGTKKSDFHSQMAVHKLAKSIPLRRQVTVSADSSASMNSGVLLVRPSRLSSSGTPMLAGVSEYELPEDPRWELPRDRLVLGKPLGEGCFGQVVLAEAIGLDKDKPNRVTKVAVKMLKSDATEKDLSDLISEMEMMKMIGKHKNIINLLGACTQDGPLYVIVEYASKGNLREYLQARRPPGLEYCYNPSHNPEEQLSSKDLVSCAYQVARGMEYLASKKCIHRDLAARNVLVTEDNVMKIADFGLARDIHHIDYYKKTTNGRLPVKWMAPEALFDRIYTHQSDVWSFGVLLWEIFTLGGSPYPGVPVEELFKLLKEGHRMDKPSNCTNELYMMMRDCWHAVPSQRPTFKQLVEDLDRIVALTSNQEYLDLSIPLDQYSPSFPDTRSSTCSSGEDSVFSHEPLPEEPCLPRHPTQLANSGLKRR

B1: MetFGF21 (protein)
chain: MHPIPDSSPLLQFGGQVRQRYLYTDDAQQTEAHLEIREDGTVGGAADQSPESLLQLKALKPGVIQILGVKTSRFLCQRPDGALYGSLHFDPEACSFRELLLEDGYNVYQSEAHGLPLHLPGNKSPHRDPAPRGPARFLPLPGLPPALPEPPGILAPQPPDVGSSDPLSMVGPSQGRSPSYAS
For B1, the “Mean Δ body weight (%)” value [1] was −1.88** %, the “Glucose uptake Emax” value [2] was 100% and the Half-life mini pigs [3] was 2 h. The Half-life mice [4] was 1 h.
